The assay has as its target Human C3 (human, UniProt P01024 23-1663). Description: cell-based or functional assay.

Positions of bridges follow the written chain, without caps; N, C: chain ends. Non-standard residues stand in square brackets, D forms with d. Trp(1-Me) = Cn1cc(C[C@H](N)C(=O)O)c2ccccc21; 1Nal = N[C@@H](Cc1cccc2ccccc12)C(=O)O; 2Nal = N[C@@H](Cc1ccc2ccccc2c1)C(=O)O; Sar = CNCC(=O)O

Sequence of Human C3 (P01024 23-1663 limits assumed): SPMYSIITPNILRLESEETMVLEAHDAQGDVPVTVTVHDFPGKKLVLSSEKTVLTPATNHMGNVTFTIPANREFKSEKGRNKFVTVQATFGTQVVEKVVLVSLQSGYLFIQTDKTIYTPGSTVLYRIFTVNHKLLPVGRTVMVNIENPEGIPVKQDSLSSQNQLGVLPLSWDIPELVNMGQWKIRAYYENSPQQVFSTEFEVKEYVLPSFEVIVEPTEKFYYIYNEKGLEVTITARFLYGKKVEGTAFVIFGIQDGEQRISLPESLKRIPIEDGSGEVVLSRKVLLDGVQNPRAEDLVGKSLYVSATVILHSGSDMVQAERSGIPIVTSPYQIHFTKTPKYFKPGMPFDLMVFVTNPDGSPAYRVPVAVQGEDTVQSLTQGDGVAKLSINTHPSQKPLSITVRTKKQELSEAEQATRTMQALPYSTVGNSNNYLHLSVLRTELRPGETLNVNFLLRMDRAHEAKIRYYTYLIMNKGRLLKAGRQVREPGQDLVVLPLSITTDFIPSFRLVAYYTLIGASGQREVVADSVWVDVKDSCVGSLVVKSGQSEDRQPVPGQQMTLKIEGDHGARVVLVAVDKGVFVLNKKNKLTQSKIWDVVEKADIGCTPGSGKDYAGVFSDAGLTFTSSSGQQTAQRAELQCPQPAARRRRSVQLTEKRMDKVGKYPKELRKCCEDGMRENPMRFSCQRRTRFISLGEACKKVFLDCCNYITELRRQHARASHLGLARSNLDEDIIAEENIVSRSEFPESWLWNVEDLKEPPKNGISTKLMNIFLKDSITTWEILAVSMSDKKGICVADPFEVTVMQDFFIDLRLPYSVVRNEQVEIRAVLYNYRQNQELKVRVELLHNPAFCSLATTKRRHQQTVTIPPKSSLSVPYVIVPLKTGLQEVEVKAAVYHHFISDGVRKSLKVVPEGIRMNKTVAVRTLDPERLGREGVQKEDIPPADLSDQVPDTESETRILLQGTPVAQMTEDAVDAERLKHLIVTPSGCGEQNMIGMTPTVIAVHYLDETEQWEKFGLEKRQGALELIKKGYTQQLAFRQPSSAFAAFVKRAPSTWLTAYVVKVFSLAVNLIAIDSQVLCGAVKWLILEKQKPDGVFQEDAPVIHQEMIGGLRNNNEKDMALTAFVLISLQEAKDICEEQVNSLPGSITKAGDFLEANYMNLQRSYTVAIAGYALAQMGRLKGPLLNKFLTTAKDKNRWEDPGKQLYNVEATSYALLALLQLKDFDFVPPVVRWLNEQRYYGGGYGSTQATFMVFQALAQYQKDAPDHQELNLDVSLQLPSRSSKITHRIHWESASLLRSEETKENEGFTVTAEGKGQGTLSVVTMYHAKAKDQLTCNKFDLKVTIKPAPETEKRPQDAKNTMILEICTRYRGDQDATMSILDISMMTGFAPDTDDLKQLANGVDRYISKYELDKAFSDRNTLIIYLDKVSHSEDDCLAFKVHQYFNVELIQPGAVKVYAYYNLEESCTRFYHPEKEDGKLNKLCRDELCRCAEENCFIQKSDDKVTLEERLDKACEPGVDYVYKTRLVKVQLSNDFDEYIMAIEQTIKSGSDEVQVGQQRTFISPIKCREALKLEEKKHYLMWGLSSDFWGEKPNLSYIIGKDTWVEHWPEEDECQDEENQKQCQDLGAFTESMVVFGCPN

B1: Compound 64 (peptide)
peptide: Ac-FCI[2Nal]QDWGEHRCTGAES-NH2
modifications: disulfide 2-12
SMILES: CC[C@H](C)[C@@H]1NC(=O)[C@@H](NC(=O)[C@H](Cc2ccccc2)NC(C)=O)CSSC[C@@H](C(=O)N[C@H](C(=O)NCC(=O)N[C@@H](C)C(=O)N[C@@H](CCC(=O)O)C(=O)N[C@@H](CO)C(N)=O)[C@@H](C)O)NC(=O)[C@H](CCCNC(=N)N)NC(=O)[C@H](Cc2c[nH]cn2)NC(=O)[C@H](CCC(=O)O)NC(=O)CNC(=O)[C@H](Cc2c[nH]c3ccccc23)NC(=O)[C@H](CC(=O)O)NC(=O)[C@H](CCC(N)=O)NC(=O)[C@H](Cc2ccc3ccccc3c2)NC1=O
B1: the IC50[nM], inhibition of hemolysis is less than 100 nM.

B2: Compound 58 (peptide)
peptide: Ac-EGSAFCI[Trp(1-Me)]QDWGEHRCEGE-NH2
modifications: disulfide 6-16
SMILES: CC[C@H](C)[C@@H]1NC(=O)[C@@H](NC(=O)[C@H](Cc2ccccc2)NC(=O)[C@H](C)NC(=O)[C@H](CO)NC(=O)CNC(=O)[C@H](CCC(=O)O)NC(C)=O)CSSC[C@@H](C(=O)N[C@@H](CCC(=O)O)C(=O)NCC(=O)N[C@@H](CCC(=O)O)C(N)=O)NC(=O)[C@H](CCCNC(=N)N)NC(=O)[C@H](Cc2c[nH]cn2)NC(=O)[C@H](CCC(=O)O)NC(=O)CNC(=O)[C@H](Cc2c[nH]c3ccccc23)NC(=O)[C@H](CC(=O)O)NC(=O)[C@H](CCC(N)=O)NC(=O)[C@H](Cc2cn(C)c3ccccc23)NC1=O
Turning to B2, the IC50[nM], inhibition of hemolysis was less than 100 nM.

B3: Compound 65 (peptide)
peptide: Ac-YCI[2Nal]QDWGEHRCTGAES-NH2
modifications: disulfide 2-12
SMILES: CC[C@H](C)[C@@H]1NC(=O)[C@@H](NC(=O)[C@H](Cc2ccc(O)cc2)NC(C)=O)CSSC[C@@H](C(=O)N[C@H](C(=O)NCC(=O)N[C@@H](C)C(=O)N[C@@H](CCC(=O)O)C(=O)N[C@@H](CO)C(N)=O)[C@@H](C)O)NC(=O)[C@H](CCCNC(=N)N)NC(=O)[C@H](Cc2c[nH]cn2)NC(=O)[C@H](CCC(=O)O)NC(=O)CNC(=O)[C@H](Cc2c[nH]c3ccccc23)NC(=O)[C@H](CC(=O)O)NC(=O)[C@H](CCC(N)=O)NC(=O)[C@H](Cc2ccc3ccccc3c2)NC1=O
With B3, the IC50[nM], inhibition of hemolysis was less than 100 nM.

B4: Compound 59 (peptide)
peptide: Ac-EGSAYCI[Trp(1-Me)]QDWGEHRCTE-NH2
modifications: disulfide 6-16
SMILES: CC[C@H](C)[C@@H]1NC(=O)[C@@H](NC(=O)[C@H](Cc2ccc(O)cc2)NC(=O)[C@H](C)NC(=O)[C@H](CO)NC(=O)CNC(=O)[C@H](CCC(=O)O)NC(C)=O)CSSC[C@@H](C(=O)N[C@H](C(=O)N[C@@H](CCC(=O)O)C(N)=O)[C@@H](C)O)NC(=O)[C@H](CCCNC(=N)N)NC(=O)[C@H](Cc2c[nH]cn2)NC(=O)[C@H](CCC(=O)O)NC(=O)CNC(=O)[C@H](Cc2c[nH]c3ccccc23)NC(=O)[C@H](CC(=O)O)NC(=O)[C@H](CCC(N)=O)NC(=O)[C@H](Cc2cn(C)c3ccccc23)NC1=O
B4: the IC50[nM], inhibition of hemolysis was less than 100 nM.

B5: Compound 72 (peptide)
peptide: Ac-FCI[Trp(1-Me)]QDW[Sar]EHRCTGAES-NH2
modifications: disulfide 2-12
SMILES: CC[C@H](C)[C@@H]1NC(=O)[C@@H](NC(=O)[C@H](Cc2ccccc2)NC(C)=O)CSSC[C@@H](C(=O)N[C@H](C(=O)NCC(=O)N[C@@H](C)C(=O)N[C@@H](CCC(=O)O)C(=O)N[C@@H](CO)C(N)=O)[C@@H](C)O)NC(=O)[C@H](CCCNC(=N)N)NC(=O)[C@H](Cc2c[nH]cn2)NC(=O)[C@H](CCC(=O)O)NC(=O)CN(C)C(=O)[C@H](Cc2c[nH]c3ccccc23)NC(=O)[C@H](CC(=O)O)NC(=O)[C@H](CCC(N)=O)NC(=O)[C@H](Cc2cn(C)c3ccccc23)NC1=O
B5 came in with an IC50[nM], inhibition of hemolysis of less than 100 nM.

B6: Compound 56 (peptide)
peptide: Ac-EGSAFCI[1Nal]QDWGEHRCTE-NH2
modifications: disulfide 6-16
SMILES: CC[C@H](C)[C@@H]1NC(=O)[C@@H](NC(=O)[C@H](Cc2ccccc2)NC(=O)[C@H](C)NC(=O)[C@H](CO)NC(=O)CNC(=O)[C@H](CCC(=O)O)NC(C)=O)CSSC[C@@H](C(=O)N[C@H](C(=O)N[C@@H](CCC(=O)O)C(N)=O)[C@@H](C)O)NC(=O)[C@H](CCCNC(=N)N)NC(=O)[C@H](Cc2c[nH]cn2)NC(=O)[C@H](CCC(=O)O)NC(=O)CNC(=O)[C@H](Cc2c[nH]c3ccccc23)NC(=O)[C@H](CC(=O)O)NC(=O)[C@H](CCC(N)=O)NC(=O)[C@H](Cc2cccc3ccccc23)NC1=O
Molecule B6 gave an IC50[nM], inhibition of hemolysis of less than 100 nM.

B7: Compound 68 (peptide)
peptide: Ac-YCI[Trp(1-Me)]QDWGEHRCTEAGS-NH2
modifications: disulfide 2-12
SMILES: CC[C@H](C)[C@@H]1NC(=O)[C@@H](NC(=O)[C@H](Cc2ccc(O)cc2)NC(C)=O)CSSC[C@@H](C(=O)N[C@H](C(=O)N[C@@H](CCC(=O)O)C(=O)N[C@@H](C)C(=O)NCC(=O)N[C@@H](CO)C(N)=O)[C@@H](C)O)NC(=O)[C@H](CCCNC(=N)N)NC(=O)[C@H](Cc2c[nH]cn2)NC(=O)[C@H](CCC(=O)O)NC(=O)CNC(=O)[C@H](Cc2c[nH]c3ccccc23)NC(=O)[C@H](CC(=O)O)NC(=O)[C@H](CCC(N)=O)NC(=O)[C@H](Cc2cn(C)c3ccccc23)NC1=O
B7 yielded an IC50[nM], inhibition of hemolysis of less than 100 nM.

B8: Compound 57 (peptide)
peptide: Ac-EGSAFCI[Trp(1-Me)]QDWGEHRCTE-NH2
modifications: disulfide 6-16
SMILES: CC[C@H](C)[C@@H]1NC(=O)[C@@H](NC(=O)[C@H](Cc2ccccc2)NC(=O)[C@H](C)NC(=O)[C@H](CO)NC(=O)CNC(=O)[C@H](CCC(=O)O)NC(C)=O)CSSC[C@@H](C(=O)N[C@H](C(=O)N[C@@H](CCC(=O)O)C(N)=O)[C@@H](C)O)NC(=O)[C@H](CCCNC(=N)N)NC(=O)[C@H](Cc2c[nH]cn2)NC(=O)[C@H](CCC(=O)O)NC(=O)CNC(=O)[C@H](Cc2c[nH]c3ccccc23)NC(=O)[C@H](CC(=O)O)NC(=O)[C@H](CCC(N)=O)NC(=O)[C@H](Cc2cn(C)c3ccccc23)NC1=O
As for B8, the IC50[nM], inhibition of hemolysis was less than 100 nM.

B9: Compound 71 (peptide)
peptide: Ac-SEYCI[Trp(1-Me)]QDWGEHRC[Sar]EA-NH2
modifications: disulfide 4-14
SMILES: CC[C@H](C)[C@@H]1NC(=O)[C@@H](NC(=O)[C@H](Cc2ccc(O)cc2)NC(=O)[C@H](CCC(=O)O)NC(=O)[C@H](CO)NC(C)=O)CSSC[C@@H](C(=O)N(C)CC(=O)N[C@@H](CCC(=O)O)C(=O)N[C@@H](C)C(N)=O)NC(=O)[C@H](CCCNC(=N)N)NC(=O)[C@H](Cc2c[nH]cn2)NC(=O)[C@H](CCC(=O)O)NC(=O)CNC(=O)[C@H](Cc2c[nH]c3ccccc23)NC(=O)[C@H](CC(=O)O)NC(=O)[C@H](CCC(N)=O)NC(=O)[C@H](Cc2cn(C)c3ccccc23)NC1=O
Turning to B9, the IC50[nM], inhibition of hemolysis was less than 100 nM.

B10: Compound 60 (peptide)
peptide: Ac-EGSAFCI[2Nal]QDWGEHRCTE-NH2
modifications: disulfide 6-16
SMILES: CC[C@H](C)[C@@H]1NC(=O)[C@@H](NC(=O)[C@H](Cc2ccccc2)NC(=O)[C@H](C)NC(=O)[C@H](CO)NC(=O)CNC(=O)[C@H](CCC(=O)O)NC(C)=O)CSSC[C@@H](C(=O)N[C@H](C(=O)N[C@@H](CCC(=O)O)C(N)=O)[C@@H](C)O)NC(=O)[C@H](CCCNC(=N)N)NC(=O)[C@H](Cc2c[nH]cn2)NC(=O)[C@H](CCC(=O)O)NC(=O)CNC(=O)[C@H](Cc2c[nH]c3ccccc23)NC(=O)[C@H](CC(=O)O)NC(=O)[C@H](CCC(N)=O)NC(=O)[C@H](Cc2ccc3ccccc3c2)NC1=O
B10 had an IC50[nM], inhibition of hemolysis of less than 100 nM.

B11: Compound 52 (peptide)
peptide: Ac-ICI[2Nal]QDWGEHRCTGAES-NH2
modifications: disulfide 2-12
SMILES: CC[C@H](C)[C@H](NC(C)=O)C(=O)N[C@H]1CSSC[C@@H](C(=O)N[C@H](C(=O)NCC(=O)N[C@@H](C)C(=O)N[C@@H](CCC(=O)O)C(=O)N[C@@H](CO)C(N)=O)[C@@H](C)O)NC(=O)[C@H](CCCNC(=N)N)NC(=O)[C@H](Cc2c[nH]cn2)NC(=O)[C@H](CCC(=O)O)NC(=O)CNC(=O)[C@H](Cc2c[nH]c3ccccc23)NC(=O)[C@H](CC(=O)O)NC(=O)[C@H](CCC(N)=O)NC(=O)[C@H](Cc2ccc3ccccc3c2)NC(=O)[C@H]([C@@H](C)CC)NC1=O
B11 had an IC50[nM], inhibition of hemolysis of less than 100 nM.

B12: Compound 70 (peptide)
peptide: Ac-EGSAYCI[Trp(1-Me)]QEWGEHRC[Sar]E-NH2
modifications: disulfide 6-16
SMILES: CC[C@H](C)[C@@H]1NC(=O)[C@@H](NC(=O)[C@H](Cc2ccc(O)cc2)NC(=O)[C@H](C)NC(=O)[C@H](CO)NC(=O)CNC(=O)[C@H](CCC(=O)O)NC(C)=O)CSSC[C@@H](C(=O)N(C)CC(=O)N[C@@H](CCC(=O)O)C(N)=O)NC(=O)[C@H](CCCNC(=N)N)NC(=O)[C@H](Cc2c[nH]cn2)NC(=O)[C@H](CCC(=O)O)NC(=O)CNC(=O)[C@H](Cc2c[nH]c3ccccc23)NC(=O)[C@H](CCC(=O)O)NC(=O)[C@H](CCC(N)=O)NC(=O)[C@H](Cc2cn(C)c3ccccc23)NC1=O
Turning to B12, the IC50[nM], inhibition of hemolysis was less than 100 nM.

B13: Compound 69 (peptide)
peptide: Ac-YCI[Trp(1-Me)]QDWGEHRCTESGA-NH2
modifications: disulfide 2-12
SMILES: CC[C@H](C)[C@@H]1NC(=O)[C@@H](NC(=O)[C@H](Cc2ccc(O)cc2)NC(C)=O)CSSC[C@@H](C(=O)N[C@H](C(=O)N[C@@H](CCC(=O)O)C(=O)N[C@@H](CO)C(=O)NCC(=O)N[C@@H](C)C(N)=O)[C@@H](C)O)NC(=O)[C@H](CCCNC(=N)N)NC(=O)[C@H](Cc2c[nH]cn2)NC(=O)[C@H](CCC(=O)O)NC(=O)CNC(=O)[C@H](Cc2c[nH]c3ccccc23)NC(=O)[C@H](CC(=O)O)NC(=O)[C@H](CCC(N)=O)NC(=O)[C@H](Cc2cn(C)c3ccccc23)NC1=O
As to B13, the IC50[nM], inhibition of hemolysis is less than 100 nM.

Source of the values: US20220306695A1, “COMPSTATIN ANALOGUES AND THEIR MEDICAL USES” (priority 2019, published 2022).
